The values below come from US20250277057A1 (OKLAHOMA MEDICAL RESEARCH FOUNDATION, published 2025).

The EC50 is the concentration giving half of the maximal effect. Read a low EC50 as an effect from little substance. For orientation: Kd means the free concentration of one partner at which half of the binding sites on the other are occupied at equilibrium, for simple one-to-one binding. Read a high Kd as a looser complex. By koff is commonly meant the first-order rate constant of dissociation. High values mean fast dissociation, low ones slow dissociation. The kon is a measure of how fast the partners come together. Lower therefore signals slow association.

The target of test [1] is T1, human activated protein C (human, UniProt P04070 43-197; P04070 212-461).
T1 construct: In the plasma assays aPC is generated in human plasma with Protac; also called aPC; haPC
Kind of test: ELISA, plate coated with haPC 1 ug/mL, anti-hIgG-Fc-HRP. The protocol:
(§1) The binding abilities of the anti-aPC monoclonal antibodies to haPC/hPC were assayed by Elisa. […] 1. ELISA plates were coated with haPC/hPC (1 ug/mL in PBS), 100 μL/well, at 4° C. overnight. […] 2. The plates were washed 3 times with PBST (0.1% Tween 20), 200 μL/well. […] 3. The plates were blocked with 2% BSA (PBS solution), 200 μL/well, at room temperature for 1 hour. […] 4. The plates were washed 3 times with PBST (0.1% Tween 20), 200 μL/well. […] 5. The plates were incubated with anti-aPC monoclonal antibody as primary antibody (diluted from 10 μg/mL in 2% BSA), 100 μL/well, at room temperature for 1 hour. […] 6. The plates were washed 3 times with PBST (0.1% Tween 20), 200 μL/well. [0200] 7. The plates were incubated with anti-hIgG-Fc antibody-HRP (diluted 5000-fold in 2% BSA buffer) at room temperature for 1 hour. [0201] 8. The plates were washed 6 times with PBST (0.1% Tween 20), 200 μL/well. [0202] 9. The plates were incubated with a TMB substrate (prepared from solutions A and B at 1:1 (v/v)), 100 μL/well, away from light for 10 minutes. […] 10. The reaction was quenched with HCl (1 M), 100 μL/well, and OD450 was read.
(In general: An ELISA detects its analyte on a solid surface through an enzyme-linked reagent.)

In test [2] the target is T1, human activated protein C. Kind of test: Octet BLI. The protocol:
(§2) Assay method: Octet analysis was carried out at 25° C. using a Protein A Octet biosensor in 1× Kinetics buffer. During the kinetics assay, the baseline step assay was run in 1× Kinetics buffer for 120 seconds, and then run for 240 seconds after the antibody was loaded to the biosensor. Next, the baseline 2 step assay was run in 1× Kinetics buffer for 120 seconds. […] The 1× Kinetics buffer was used as a blank control to show the natural dissociation of the antibody in the buffer. 10 mM glycine at pH 1.5 was used for the regeneration step. Octet data analysis software was used to calculate binding kinetics, and a 1:1 binding model was used for curve fitting.
In general terms: BLI is a label-free optical method that tracks binding on a fibre tip over time.

Test [3] deals with T2, human protein C (human, UniProt P04070 43-461).
T2 construct: Zymogen form, coated on ELISA plates; also called hPC; PC
Kind of test: ELISA, plate coated with hPC 1 ug/mL, anti-hIgG-Fc-HRP. As for the experimental part: as §1

Test [4] concerns the target T2, human protein C. The test can be described thus: ELISA on plate-coated HPC, OD450. As for the experimental part:
as §1

For test [5], the target named is T1, human activated protein C. Kind of test: Octet BLI, antibody on Protein A sensor, huAPC 3.13-50 nM, 1:1 model, 25 C, pH 7.4. As for the experimental part:
as §2
The affinities of the mutant antibodies were assayed at pH 7.4.

The target in test [6] is T1, human activated protein C. The test can be described thus: cell-based or functional assay.

B1: HAPC-14-3 (antibody, V domains shown)
VH: EVQLVESGGGLVQPGGSLRLSCAASGFTFSFYYLNWVRQAPGKGLEWVGDIRLKKNNYEKHYAESVKGRFTISRDDSKSITYLQMNSLRAEDTAVYYCAREGDYFDYWGQGTTVTVSS
VL: DIQLTQSPSSLSASVGDRVTITCRASESVDSFGATFMHWYQQKPGKAPKLLIYLASRLGSGVPSRFSGSGSGTDFTLTISSLQPEDFATYYCVQNNEDPYTFGQGTKLEIK
notes: Whole IgG, backbone hIgG1; also called HPAC 14-3; No. 3
Take B1: in test [1], the EC50 is 0.0618 nM and the Span is 1.61. The “fold increase of affinity against the unmutated No. 14 antibody HAPC-14” value in test [2] is roughly 100 fold. This molecule displayed a Span with human protein C [3] of roughly 0.267. Besides, the binding result in the test with human protein C [4] is recorded as “no binding (tested: 10^2 nM)”. In test [5], the Kd turned out to be 2.67 nM, the koff is 0.000854 s⁻¹ and the kon was 320000 M⁻¹ s⁻¹. Besides, in test [6], the “Mean clotting time (s), FIX-deficient plasma, APC-antibody concentration 0.5 ug/ml” value came out at 208 s; the “Mean clotting time (s), FIX-deficient plasma, APC-antibody concentration 1 ug/ml” value stood at 200 s; the “Mean clotting time (s), FIX-deficient plasma, APC-antibody concentration 5 ug/ml” value came out at 185 s; the “Mean clotting time (s), FVIII-deficient plasma, APC-antibody concentration 0.5 ug/ml” value stood at 205 s. In addition, in test [6], the “Mean clotting time (s), FVIII-deficient plasma, APC-antibody concentration 1 ug/ml” value is 188 s and the “Mean clotting time (s), FVIII-deficient plasma, APC-antibody concentration 5 ug/ml” value was determined as 176 s.
